Measured values: US20140087995A1 (published 2014)
Numbered stars: 1 amine (or outer) side, 2 acyl side, 3 side chain; on linkers, the order of the positions; unused ones are H or OH. Bridge positions count the residues as written; N and C are the ends. Side chains are listed from the residue outwards. Ends that are not written are not given here. * marks the point of attachment. C20 diacid = O=C(O)CCCCCCCCCCCCCCCCCCC(=O)*; γGlu = O=C(O)[C@H](CCC(=O)[*:2])N[*:1]

T1: rat calcitonin receptor (rat, UniProt P32214 25-516)
T1 construct: whole, on cells; Used as membranes prepared from the transfected cells; also called rCTR; rCT
T1 sequence (looked up): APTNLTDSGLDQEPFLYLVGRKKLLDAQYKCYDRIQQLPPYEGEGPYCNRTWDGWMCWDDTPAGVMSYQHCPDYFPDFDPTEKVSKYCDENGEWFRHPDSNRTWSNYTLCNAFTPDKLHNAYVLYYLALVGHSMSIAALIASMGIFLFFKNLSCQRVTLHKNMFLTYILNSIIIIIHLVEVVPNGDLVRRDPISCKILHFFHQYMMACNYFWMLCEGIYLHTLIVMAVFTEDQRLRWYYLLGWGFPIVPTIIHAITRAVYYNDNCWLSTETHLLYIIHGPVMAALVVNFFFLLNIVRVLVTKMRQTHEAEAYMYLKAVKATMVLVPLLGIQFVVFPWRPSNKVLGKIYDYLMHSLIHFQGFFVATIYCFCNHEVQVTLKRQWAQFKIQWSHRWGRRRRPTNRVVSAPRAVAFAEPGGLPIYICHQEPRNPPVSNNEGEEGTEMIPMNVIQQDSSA

T2: human calcitonin receptor (human, UniProt P30988 25-474)
T2 construct: whole, on cells; Used as membranes prepared from the transfected cells; also called hCTR; hCT
T2 sequence (looked up): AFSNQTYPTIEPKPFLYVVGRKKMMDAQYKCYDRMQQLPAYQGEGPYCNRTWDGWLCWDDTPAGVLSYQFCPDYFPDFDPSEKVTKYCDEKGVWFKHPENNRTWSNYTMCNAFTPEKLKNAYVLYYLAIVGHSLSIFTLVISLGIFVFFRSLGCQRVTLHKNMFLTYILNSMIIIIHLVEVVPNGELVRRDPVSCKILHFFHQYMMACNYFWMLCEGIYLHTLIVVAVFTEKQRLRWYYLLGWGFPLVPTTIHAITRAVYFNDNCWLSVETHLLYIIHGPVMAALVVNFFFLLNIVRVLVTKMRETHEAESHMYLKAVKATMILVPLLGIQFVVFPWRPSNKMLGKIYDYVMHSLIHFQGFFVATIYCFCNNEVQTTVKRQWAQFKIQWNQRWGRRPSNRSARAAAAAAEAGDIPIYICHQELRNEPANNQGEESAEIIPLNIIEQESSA


What was measured:
rat calcitonin receptor [1] = molecular target: T1, rat calcitonin receptor; experiment: ratio of binding IC50 at rat calcitonin receptor to IC50 at rat amylin receptor (reference)
[2] = molecular target: T2, human calcitonin receptor; experiment: ratio of binding IC50 at human calcitonin receptor to IC50 at human amylin receptor (reference)
Outline: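 IC₅₀ values were derived by one-site competition analysis of SPA counts. Cell membranes (35 ng/μL) with SPA beads were incubated with test compounds for 120 min at 25° C in Hepes buffer, pH 7.4, containing CaCl2, MgCl₂, OA and Tween20.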

rat calcitonin receptor [3] = molecular target: T1, rat calcitonin receptor; experiment: SPA competition with 125I-calcitonin, membranes with rat calcitonin receptor (Assay VIII)

Row | Binder | Ratio rCT/rAmylin binding (rat calcitonin receptor [1]) | Ratio hCT/hAmylin binding [2] | IC50 (rat calcitonin receptor [3]) [nM]
1 | K([γGlu-C20 diacid])CNTATCATQRLAAFLRHSSPNFGAIPSSTNVGHNTY-NH2 (disulfide 2-7; N-terminus assumed; SMILES CC[C@H](C)[C@H](NC(=O)[C@H](C)NC(=O)CNC(=O)[C@H](Cc1ccccc1)NC(=O)[C@H](CC(N)=O)NC(=O)[C@@H]1CCCN1C(=O)[C@H](CO)NC(=O)[C@H](CO)NC(=O)[C@H](Cc1c[nH]cn1)NC(=O)[C@H](CCCNC(=N)N)NC(=O)[C@H](CC(C)C)NC(=O)[C@H](Cc1ccccc1)NC(=O)[C@H](C)NC(=O)[C@H](C)NC(=O)[C@H](CC(C)C)NC(=O)[C@H](CCCNC(=N)N)NC(=O)[C@H](CCC(N)=O)NC(=O)[C@@H](NC(=O)[C@H](C)NC(=O)[C@@H]1CSSC[C@H](NC(=O)[C@@H](N)CCCCNC(=O)CC[C@H](NC(=O)CCCCCCCCCCCCCCCCCCC(=O)O)C(=O)O)C(=O)N[C@@H](CC(N)=O)C(=O)N[C@@H]([C@@H](C)O)C(=O)N[C@@H](C)C(=O)N[C@@H]([C@@H](C)O)C(=O)N1)[C@@H](C)O)C(=O)N1CCC[C@H]1C(=O)N[C@@H](CO)C(=O)N[C@@H](CO)C(=O)N[C@H](C(=O)N[C@@H](CC(N)=O)C(=O)N[C@H](C(=O)NCC(=O)N[C@@H](Cc1c[nH]cn1)C(=O)N[C@@H](CC(N)=O)C(=O)N[C@H](C(=O)N[C@@H](Cc1ccc(O)cc1)C(N)=O)[C@@H](C)O)C(C)C)[C@@H](C)O, Analogue of human amylin; disulfide and C-terminal amide as told for h-amylin; also called compound 93) | 83.2 | 101 | 131
2 | K([γGlu-C20 diacid])CNTATCATQRLARFLRHSSPNFGAIPSSTNVGSNTY-NH2 (disulfide 2-7; N-terminus assumed; SMILES CC[C@H](C)[C@H](NC(=O)[C@H](C)NC(=O)CNC(=O)[C@H](Cc1ccccc1)NC(=O)[C@H](CC(N)=O)NC(=O)[C@@H]1CCCN1C(=O)[C@H](CO)NC(=O)[C@H](CO)NC(=O)[C@H](Cc1c[nH]cn1)NC(=O)[C@H](CCCNC(=N)N)NC(=O)[C@H](CC(C)C)NC(=O)[C@H](Cc1ccccc1)NC(=O)[C@H](CCCNC(=N)N)NC(=O)[C@H](C)NC(=O)[C@H](CC(C)C)NC(=O)[C@H](CCCNC(=N)N)NC(=O)[C@H](CCC(N)=O)NC(=O)[C@@H](NC(=O)[C@H](C)NC(=O)[C@@H]1CSSC[C@H](NC(=O)[C@@H](N)CCCCNC(=O)CC[C@H](NC(=O)CCCCCCCCCCCCCCCCCCC(=O)O)C(=O)O)C(=O)N[C@@H](CC(N)=O)C(=O)N[C@@H]([C@@H](C)O)C(=O)N[C@@H](C)C(=O)N[C@@H]([C@@H](C)O)C(=O)N1)[C@@H](C)O)C(=O)N1CCC[C@H]1C(=O)N[C@@H](CO)C(=O)N[C@@H](CO)C(=O)N[C@H](C(=O)N[C@@H](CC(N)=O)C(=O)N[C@H](C(=O)NCC(=O)N[C@@H](CO)C(=O)N[C@@H](CC(N)=O)C(=O)N[C@H](C(=O)N[C@@H](Cc1ccc(O)cc1)C(N)=O)[C@@H](C)O)C(C)C)[C@@H](C)O, Analogue of human amylin; disulfide and C-terminal amide as told for h-amylin; also called compound 83) [N^ε1-[(4S)-4-carboxy-4-(19-carboxynonadecanoylamino)butanoyl]-[Arg14,Arg17,Pro21,Pro27]-h-amylin] | 49.7 | 146 | 140
3 | K([γGlu-C20 diacid])CNTATCATQRLARFLRHSSPNFGAIPSSTPVGSNTY-NH2 (disulfide 2-7; N-terminus assumed; SMILES CC[C@H](C)[C@H](NC(=O)[C@H](C)NC(=O)CNC(=O)[C@H](Cc1ccccc1)NC(=O)[C@H](CC(N)=O)NC(=O)[C@@H]1CCCN1C(=O)[C@H](CO)NC(=O)[C@H](CO)NC(=O)[C@H](Cc1c[nH]cn1)NC(=O)[C@H](CCCNC(=N)N)NC(=O)[C@H](CC(C)C)NC(=O)[C@H](Cc1ccccc1)NC(=O)[C@H](CCCNC(=N)N)NC(=O)[C@H](C)NC(=O)[C@H](CC(C)C)NC(=O)[C@H](CCCNC(=N)N)NC(=O)[C@H](CCC(N)=O)NC(=O)[C@@H](NC(=O)[C@H](C)NC(=O)[C@@H]1CSSC[C@H](NC(=O)[C@@H](N)CCCCNC(=O)CC[C@H](NC(=O)CCCCCCCCCCCCCCCCCCC(=O)O)C(=O)O)C(=O)N[C@@H](CC(N)=O)C(=O)N[C@@H]([C@@H](C)O)C(=O)N[C@@H](C)C(=O)N[C@@H]([C@@H](C)O)C(=O)N1)[C@@H](C)O)C(=O)N1CCC[C@H]1C(=O)N[C@@H](CO)C(=O)N[C@@H](CO)C(=O)N[C@H](C(=O)N1CCC[C@H]1C(=O)N[C@H](C(=O)NCC(=O)N[C@@H](CO)C(=O)N[C@@H](CC(N)=O)C(=O)N[C@H](C(=O)N[C@@H](Cc1ccc(O)cc1)C(N)=O)[C@@H](C)O)C(C)C)[C@@H](C)O, Analogue of human amylin; disulfide and C-terminal amide as told for h-amylin; also called compound 63) | 35.6 | 157 | 124

Stronger by IC50 (rat calcitonin receptor [3]), values ahead:

Row | Ratio rCT/rAmylin binding (rat calcitonin receptor [1]) | Ratio hCT/hAmylin binding [2] | IC50 (rat calcitonin receptor [3]) [nM] | Binder
4 | 21.5 | 46.1 | 35.5 | K([γGlu-C20 diacid])CNTATCATQRLANFLRHSSPNFGAIPSSTNVGRNTY-NH2 (disulfide 2-7; N-terminus assumed; SMILES CC[C@H](C)[C@H](NC(=O)[C@H](C)NC(=O)CNC(=O)[C@H](Cc1ccccc1)NC(=O)[C@H](CC(N)=O)NC(=O)[C@@H]1CCCN1C(=O)[C@H](CO)NC(=O)[C@H](CO)NC(=O)[C@H](Cc1c[nH]cn1)NC(=O)[C@H](CCCNC(=N)N)NC(=O)[C@H](CC(C)C)NC(=O)[C@H](Cc1ccccc1)NC(=O)[C@H](CC(N)=O)NC(=O)[C@H](C)NC(=O)[C@H](CC(C)C)NC(=O)[C@H](CCCNC(=N)N)NC(=O)[C@H](CCC(N)=O)NC(=O)[C@@H](NC(=O)[C@H](C)NC(=O)[C@@H]1CSSC[C@H](NC(=O)[C@@H](N)CCCCNC(=O)CC[C@H](NC(=O)CCCCCCCCCCCCCCCCCCC(=O)O)C(=O)O)C(=O)N[C@@H](CC(N)=O)C(=O)N[C@@H]([C@@H](C)O)C(=O)N[C@@H](C)C(=O)N[C@@H]([C@@H](C)O)C(=O)N1)[C@@H](C)O)C(=O)N1CCC[C@H]1C(=O)N[C@@H](CO)C(=O)N[C@@H](CO)C(=O)N[C@H](C(=O)N[C@@H](CC(N)=O)C(=O)N[C@H](C(=O)NCC(=O)N[C@@H](CCCNC(=N)N)C(=O)N[C@@H](CC(N)=O)C(=O)N[C@H](C(=O)N[C@@H](Cc1ccc(O)cc1)C(N)=O)[C@@H](C)O)C(C)C)[C@@H](C)O, Analogue of human amylin; disulfide and C-terminal amide as told for h-amylin; also called compound 79) [N^ε1-[(4S)-4-carboxy-4-(19-carboxynonadecanoylamino)butanoyl]-[Arg17,Pro21,Pro27,Arg34]-h-amylin]
5 | 93.2 | 82.4 | 108 | K([γGlu-C20 diacid])CNTATCATQRLARFLRHSSPNFGAIPSSTNVGPNTY-NH2 (disulfide 2-7; N-terminus assumed; SMILES CC[C@H](C)[C@H](NC(=O)[C@H](C)NC(=O)CNC(=O)[C@H](Cc1ccccc1)NC(=O)[C@H](CC(N)=O)NC(=O)[C@@H]1CCCN1C(=O)[C@H](CO)NC(=O)[C@H](CO)NC(=O)[C@H](Cc1c[nH]cn1)NC(=O)[C@H](CCCNC(=N)N)NC(=O)[C@H](CC(C)C)NC(=O)[C@H](Cc1ccccc1)NC(=O)[C@H](CCCNC(=N)N)NC(=O)[C@H](C)NC(=O)[C@H](CC(C)C)NC(=O)[C@H](CCCNC(=N)N)NC(=O)[C@H](CCC(N)=O)NC(=O)[C@@H](NC(=O)[C@H](C)NC(=O)[C@@H]1CSSC[C@H](NC(=O)[C@@H](N)CCCCNC(=O)CC[C@H](NC(=O)CCCCCCCCCCCCCCCCCCC(=O)O)C(=O)O)C(=O)N[C@@H](CC(N)=O)C(=O)N[C@@H]([C@@H](C)O)C(=O)N[C@@H](C)C(=O)N[C@@H]([C@@H](C)O)C(=O)N1)[C@@H](C)O)C(=O)N1CCC[C@H]1C(=O)N[C@@H](CO)C(=O)N[C@@H](CO)C(=O)N[C@H](C(=O)N[C@@H](CC(N)=O)C(=O)N[C@H](C(=O)NCC(=O)N1CCC[C@H]1C(=O)N[C@@H](CC(N)=O)C(=O)N[C@H](C(=O)N[C@@H](Cc1ccc(O)cc1)C(N)=O)[C@@H](C)O)C(C)C)[C@@H](C)O, Analogue of human amylin; disulfide and C-terminal amide as told for h-amylin; also called compound 65)
